Source: publication PMC4648099
Values joined by “and” are separate entries in the source; they are usually repeats but may differ in a detail not shown here. Identical values can stand only once.

Target: thrombin (alpha-thrombin) (UniProt P00734+P00734)
Experiment: competition (FAM fluorescence displacement)
Details: G8 replaced by 5-nitroindole (N at position 8); Fluorescence assays: 10 mM sodium cacodylate pH 7.2, 100 mM KCl, 20 °C, 20 nM FAM-aptamer (100 nM thrombin in displacement); EMSA: 1xTBE pH 8.3, 100 mM KCl …

GGTTGGTNTGGTTGG [TBA-N8]
Kd: 2.3 nM and 1.7 nM
